Data as given in patent publication US6730503B1 (Roche Vitamins Inc., priority 1996, dated 2004).
Where “and” joins values, the source holds several entries; their conditions need not be identical. Equal entries are not always repeated. Entries after “also recorded” stand apart in the source; their conditions may differ.

B1: Enzyme A″: recombinant AADH of G. oxydans DSM No. 4025, amino acid sequence SEQ ID NO 7, plasmid p26C3 (protein)
chain: MKLTTLLQSSAALLVLGTIPALAQTAITDEMLANPPAGEWINYGQNQENYRHSPLTQITADNVGQLQLVWARGMEAGKIQVTPLVHDGVMYLANPGDVIQAIDAATGDLIWEHRRQLPNIATLNSFGEPTRGMALYGTNVYFVSWDNHLVALDTSTGQVVFDVDRGQGTDMVSNSSGPIVANGVIVAGSTCQYSPFGCFVSGHDSATGEELWRNTFIPRAGEEGDETWGNDYEARWMTGVWGQITYDPVGGLVHYGTSAVGPAAEIQRGTVGGSMYGTNTRFAVRPETGEIVWRHQTLPRDNWDQECTFEMMVVNVDVQPSAEMEGLHAINPDAATGERRVVTGVPCKNGTMWQFDAETGEFLWARDTSYQNLIESVDPDGLVHVNEDLVVTELEVAYEICPTFLGGRDWPSAALNPDTGIYFIPLNNACSGMTAVDQEFSSLDVYNVSLDYKLSPGSENMGRIDAIDISTGRTLWSAERYASNYAPVLSTGGGVLFNGGTDRYFRALSQETGETLWQTRLATVASGQAISYEIDGVQYVAIGRGGTSYGSNHNRALTERIDSTAIGSAIYVFALPQQ
modifications: Gluconobacter oxydans; SIGNAL (1)..(23)
B2: Enzyme B: recombinant AADH of G. oxydans DSM No. 4025, amino acid sequence SEQ ID NO 8, plasmid pSS31/pSSB103R (protein)
chain: MNPTTLLRTSAAVLLLTAPAAFAQVTPITDELLANPPAGEWINYGRNQENYRHSPLTQITADNVGQLQLVWARGMEAGAVQVTPMIHDGVMYLANPGDVIQALDAQTGDLIWEHRRQLPAVATLNAQGDRKRGVALYGTSLYFSSWDNHLIALDMETGQVVFDVERGSGEDGLTSNTTGPIVANGVIVAGSTCQYSPYGCFISGHDSATGEELWRNHFIPQPGEEGDETWGNDFEARWMTGVWGQITYDPVTNLVFYGSTGVGPASETQRGTPGGTLYGTNTRFAVRPDTGEIVWRHQTLPRDNWDQECTFEMMVANVDVQPSAEMEGLRAINPNAATGERRVLTGAPCKTGTMWSFDAASGEFLWARDTNYTNMIASIDETGLVTVNEDAVLKELDVEYDVCPTFLGGRDWSSAALNPDTGIYFLPLNNACYDIMAVDQEFSALDVYNTSATAKLAPGFENMGRIDAIDISTGRTLWSAERPAANYSPVLSTAGGVVFNGGTDRYFRALSQETGETLWQARLATVATGQAISYELDGVQYIAIGAGGLTYGTQLNAPLAEAIDSTSVGNAIYVFALPQ
modifications: Gluconobacter oxydans; SIGNAL (1)..(23)

What was measured:
[1] = Substrate specificity of purified enzymes, PMS-DCIP spectrophotometric assay; assay type: biochemical; conditions: A′ corrected 1.5-fold (purity about 65%)
Protocol: The enzymatic activity of the AADHs herein can be determined by methods known in the art, such as by photometric analysis using a spectrophotometer. In accordance with the present invention, one unit of enzyme activity was defined as the amount of enzyme which catalyzed the reduction of 1 μmole of DCIP per minute. The extinction coefficient of DCIP at pH 8.0 was taken as 15 mM^−1. In a preferred standard assay for determining the enzyme activity of the AADHs herein, a first cuvette includes a standard reaction mixture (1.0 ml) containing 0.1 mM DCIP, 1 mM PMS, 2 to 125 mM substrate, 50 mM Tris-malate-NaOH buffer (pH 8.0), and 10 μl of the enzyme solution. A second cuvette, i.e., a reference cuvette, contains all the above components except the substrate. The reference cuvette is used to standardize the background absorbance resulting from a substrate-independent (endogenous) reaction. Preferably, a double beam spectrophotometer is used to determine the activity of the enzyme in the presence of a substrate with respect to a standard reaction mixture in the absence of the substrate.
Enzyme activities of each clone (cell free extract, soluble fraction and membrane fraction) were measured by photometric analysis. The cells of each clone were inoculated in 5 ml of MB medium in a test tube and cultivated at 30° C. for 24 hours. The resulting broth was transferred into 200 ml of fresh MB medium in 500 ml flask and the flask was shaken on the rotary flask shaker at 30° C. for 24 hours. The cells were collected by centrifugation at 6,000×g for 10 minutes and washed with 40 ml of cold buffer consisting of 50 mM Tris-HCl, pH 7.5, 5 mM MgCl2 and 0.5 mM phenylmethylsulfonyl fluoride and suspended with the same buffer to prepare cell suspension of 1 g wet cells per 5 ml. The cell suspension was subjected twice to a French press cell disruptor (1,500 kg/cm^2) and the resulting homogenate was centrifuged at 6,000×g for 10 minutes to remove cell debris. Thus obtained cell free extract (CFE) was centrifuged at 100,000×g for 60 minutes. The resulting supernatant and pellet were collected as the cytosol fraction and the membrane fraction, respectively and subjected to PMS-DCIP assay as follows. The enzyme reaction mixture (1.0 ml) contained 100 μM DCIP, 1 mM PMS, 50 mM Tris malate-NaOH buffer, pH 8.0, a substrate and the enzyme (10 μl). Substrate-dependent decreasing rate of absorbance of DCIP at 600 nm was measured at 25° C. by using a Kontron spectrophotometer UVIKON 810. […] In the A-group, there were three types, A, A′ and A″ each of which was distinguished from each other by their physical map of the DNA carried on each plasmid. B- or C-group each consisted of only one type of protein derived from one region of the chromosomal DNA.

[2] = Optimal pH, PMS-DCIP assay in buffers of various pH; assay type: biochemical
Protocol: The Enzymes A″ and B have a relatively wide pH range toward a lower pH, compared with the Enzymes A and A′.
The enzyme activity was assayed by the PMS-DCIP spectrophotometric assay using various pH buffers. The buffers were 50 mM Tris-malate-NaOH, pH 6.0, 6.5, 7.0, 7.5, 8.0 and 8.5; 50 mM glycine-NaOH, pH 9.0 and 9.5. The extinction coefficients of DCIP at pH 6.0, 6.5, 7.0, 7.5, 8.0, 8.5, 9.0 and 9.5 were taken as 10.8, 13.2, 14.5, 14.9, 15.0, 15.1, 15.1 and 15.1, respectively. […] The Enzymes A″ and B had relatively wide pH range toward lower pH, compared with the Enzymes A and A′.

[3] = Oxidation product of AADH clones by resting cell reaction followed by TLC analysis; assay type: cell-based, P. putida
Text: Enzyme A gene was originally cloned as a cosmid clone of p24D4 which has about 25 kb insert in EcoRI site of pVK100. Then, it was further subcloned to use as an Enzyme A gene cassette. The 2.7 kb EcoRV fragment which includes ORF of Enzyme A gene with about 500 bp of non-coding regions at the both ends was excised from 3.4 kb NruI fragment, which was isolated from p24D4 in M13 mp18, and was ligated to HindIII site of pUC18 with HindIII linker ([…]). The resulting plasmid was designated pSSA202. Enzyme A gene cassette (2.7 kb HindIII fragment) was then inserted at HindIII site of pVK102 to produce pSSA102R. The plasmid pSSA102R was introduced into nalidixic acid resistant P. putida [ATCC 21812] by a conjugal mating method as described in Example 1-(1). The transconjugant of P. putida carrying pSSA102R was selected on MB agar medium containing 50 μg/ml nalidixic acid and 10 μg/ml tetracycline (MNT agar medium) and subjected to a mini-resting cell reaction. […] The reaction mixture was assayed with TLC and 2KGA was identified as the product, while no 2KGA was observed by the same resting cell reaction with the host, nalidixic acid resistant P. putida [ATCC 21812].

[4] = Products of enzyme reactions with purified enzymes, identified by TLC and/or HPLC; assay type: biochemical
Protocol: Products formed from a substrate in the reaction with Enzyme A, Enzyme A′, Enzyme A″ or Enzyme B were analyzed by thin layer chromatography (TLC) and/or high performance liquid chromatography (HPLC) with authentic compounds. […] Similarly to the reactivity for L-sorbosone, D-glucosone can be converted to 2KD by all of above mentioned AADHs. A group enzymes can produce 2KD from D-fructose whose possible direct product is D-glucosone. […]
Enzyme reactions with purified Enzyme A or Enzyme B and various substrates were performed as described in Example 11.

Molecule | Substrate specificity ([1]; 2 mM L-Sorbosone) | Substrate specificity ([1]; 50 mM D-Glucose) | Substrate specificity ([1]; 50 mM D-Mannitol) | Substrate specificity ([1]; 50 mM Isopropanol) | Substrate specificity ([1]; 50 mM n-Propanol) | Substrate specificity ([1]; 125 mM D-Fructose) | Substrate specificity ([1]; 125 mM D-Sorbitol) | Substrate specificity ([1]; 125 mM L-Sorbose) | Relative activity (optimal pH) ([2]; assay pH 6.0, pH 8.0 = 100) [%] | Relative activity (optimal pH) ([2]; assay pH 6.5, pH 8.0 = 100) [%] | Relative activity (optimal pH) ([2]; assay pH 7.0, pH 8.0 = 100) [%] | Relative activity (optimal pH) ([2]; assay pH 7.5, pH 8.0 = 100) [%] | Relative activity (optimal pH) ([2]; assay pH 8.0) [%] | Relative activity (optimal pH) ([2]; assay pH 8.5, pH 8.0 = 100) [%] | Relative activity (optimal pH) ([2]; assay pH 9.0, pH 8.0 = 100) [%] | Relative activity (optimal pH) ([2]; assay pH 9.5, pH 8.0 = 100) [%] | Oxidation product of D-sorbitol [3] | Oxidation product of L-sorbosone [3] | Product ([4]; substrate D-Mannitol) | Product ([4]; substrate D-Sorbitol) | further results
B1 | 26.5 units/mg of purified protein | 17.8 units/mg of purified protein | 6.2 units/mg of purified protein | 154.9 units/mg of purified protein | 262.3 units/mg of purified protein | 17.3 units/mg of purified protein | 30.1 units/mg of purified protein | 30.3 units/mg of purified protein | 35.0 | 57.3 | 74.8 | 90.0 | 100.0 | 85.6 | 46.5 | 23.9 | mainly D-glucose | *4Oxidation product of L-sorbosone by Enzymes A, A′, A″, B, and [A and B] was 2KGA. | D-mannose | D-glucose with L-gulose | Oxidation product of L-sorbose [3]: *1Oxidation product of L-sorbose by Enzymes A, A′, A″, and [A and B] was 2KGA.; Product ([4]; substrate D-Fructose): 2-keto-D-gluconic acid; Product ([4]; substrate L-Sorbose): L-sorbosone with 2KGA; Product ([4]; substrate L-Sorbosone): 2KGA
B2 | 73.6 units/mg of purified protein | 943.9 units/mg of purified protein | 517.4 units/mg of purified protein | 72.3 units/mg of purified protein | 40.0 units/mg of purified protein | 2.1 units/mg of purified protein | 130.9 units/mg of purified protein | 8.4 units/mg of purified protein | 21.0 | 51.6 | 61.6 | 75.3 | 100.0 | 62.2 | 8.0 | 0.0 | L-sorbose | *4Oxidation product of L-sorbosone by Enzymes A, A′, A″, B, and [A and B] was 2KGA. | D-Fructose | L-Sorbose | Oxidation product of D-glucose [3]: *2Oxidation product of D-glucose by Enzyme B, and Enzyems [A and B] was D-gluconic acid.; Product ([4]; substrate D-Gluconic acid): 5-keto-D-gluconic acid and 5-Keto-D-gluconic acid; Product ([4]; substrate D-Glucose): D-gluconate; also recorded: D-Gluconic acid; Product ([4]; substrate D-Mannoic acid): 5-keto-D-mannoic acid and 5-Keto-D-mannoic acid; Product ([4]; substrate Glycerol): Dihydroxyacetone; Product ([4]; substrate L-Idose): L-Idonic acid; Product ([4]; substrate L-Sorbosone): 2KGA
